{"source": "the nanobody polyreactivity screen of Harvey et al. (2022)"}
{"test": "yeast display, Sf9 membrane polyspecificity reagent, FACS + sequencing; frameworks hold sequencing errors", "outline": "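A nanobody's polyreactivity label depends on the gate it was sorted from. Yeast display cells were stained with 10% biotinylated, detergent-solubilized Sf9 membrane reagent for 1 hour at 4 °C, enriched on streptavidin microbeads and sorted by FACS. The low and high (top ~1%) gates were set on anti-HA fluorescence for expression and streptavidin fluorescence for reagent binding.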"}
{"sequence": "QVQLVESGGGLVQAGGSLRLSCAASGFIFRDYVMGWYRQAPGKERELVAAISYRDGSTYYADSVKGRFTISRDNAKNTVYLQMNSLKPEDTAVYYCNAPGYQGYEYWGQGTQVTVSS", "polyreactivity (PSR sort gate)": "low polyreactivity"}
{"sequence": "QVQLVESGGGLVKAGGSLRLSCAASGLIFRRNAMGWYRQAPGKERELVATINFRDTTRYADSVKGRFTISRDNAKNTVYFQMNSLKPEDTAVYYCATEWPERDWWVHKMDYWGQGTQVTVSS", "polyreactivity (PSR sort gate)": "low polyreactivity"}
{"sequence": "QVQLVESGGGLVQAGGSLRLSCAASGFISRFNSMGWYRKAPGKERELVAAISWYGGITYYADSVKGRFTISRDNAKNTVYLQMNSLKPEDTAVYYCNAGDHIRKRYGISATWGYGYGYWGQGTQVTVSS", "polyreactivity (PSR sort gate)": "high polyreactivity"}
{"sequence": "QVQLVESGGGLVQAGGSLRLSCAASGRIFGTNAMGWYRQAPGKERELVAAISRSGGSTYYADSVKGRFTISRDNAKNTVYLQMNSLKPEDTAVYYCATDGRHTYYYWGQGTQVTVST", "polyreactivity (PSR sort gate)": "high polyreactivity"}
{"sequence": "QVQLVESGGGLVQAGGSLRLSCDASGRIFAYYARGWYRQAPGKERELVAAITTNGGGTYYADSVKGRFTISRDNAKNTVYLQMNSLKPEDTGVYYCNAVKQRSSIFDYWGQGTQVTVSS", "polyreactivity (PSR sort gate)": "low polyreactivity"}
{"sequence": "QVQLVESGGGLVQAGGSLRLSCAASGRTFSTYAMGWYRQAPGKERELVAAISWRGARTYYADSVKGRFTISRDNAKNTVYLQMNSLKPEDTAVYYCAVRSLVAIRGRAYYYWGQGTQVTVSS", "polyreactivity (PSR sort gate)": "high polyreactivity"}
{"sequence": "QVQLVESGGGLVQAGGSLRLSCAASGRTFVRNAMGWYRQAPGKERELVATIRSGGSTNYADSVKGRFTISRDNAKNTVYLQMNSLKPEDTAVYYCATQGSRARYDYYYWGQGTQVTVSS", "polyreactivity (PSR sort gate)": "high polyreactivity"}
{"sequence": "QDQLVESGGGLVQAGGSLRLSCAASGSTFQDYAMGWYRQAPGKERELVAAITYSGGSTYYADSVKGRFTISRDIAKNTVYLQMNSLKPEDTAVYYCAAKDTTVFYYDDDYWGHGTQVTVSS", "polyreactivity (PSR sort gate)": "low polyreactivity"}
{"sequence": "QVQLVESGGGLVQPGGSLRLSCAASGRISSKYAMGWYRQAPGKERELVATISSRGGSTYYADSVKGRFTISRDNAKNTVYLQMNSLKPEDTAVYYCNRPTYLHSTSYSYDYWGQGTQVTVSS", "polyreactivity (PSR sort gate)": "low polyreactivity"}
{"sequence": "QVQLVESGGGLVQAGGSLRLSCAASGNAMGWYRQAPGKERELVAAITRRGGSTYYADSVKGRFTISRDNAKNTVYLQMNSLKPEDTAVYYCAAENPSYNLCYGYWGQGTQVTVSS", "polyreactivity (PSR sort gate)": "low polyreactivity"}
{"sequence": "QVQLVESGGGLVQAGGSLRLSCAASGRTFTPYAMGWYRQAPGKERELVAAIDTSGGSTYADSVKGRFTISRDNAKNTVYLQMNSLKPEDTAVYYCAATRHSRVRGGDYWGQGTQVTVSS", "polyreactivity (PSR sort gate)": "low polyreactivity"}
{"sequence": "QVQLVESGGGLVQAGGSLSLSCAASGFTFYENAMGWYRQAPGKERELVATISYSGGTTYYADSVKGRFTISRDNAKNTVYLQMNSLKPEDTAVYYCNADYFYYGFPDDYWGQGTQVTVSS", "polyreactivity (PSR sort gate)": "low polyreactivity"}
{"sequence": "QVQLVESGGGLVQAGGSLRLSCAASGRIFDKYTMGWYRQAPGKERELVAAISKSGSGTFYADSVKGRFTISRDNAKNTVYLQMNSLKPEDTAVYYCARVYTVGTGRSWRLDYWGQGTQVTVSS", "polyreactivity (PSR sort gate)": "high polyreactivity"}
{"sequence": "QVQLVESGGGLVQAGGSLRLSCAASGRIFKYYAMGWYRPAPWKKRELVATISVSGGRTYYADSVKGRFTISRDNAKNTVYLQMNSLKPEDTAVYYCAAYSVIRRRVEYGYWGQGTQVTVSS", "polyreactivity (PSR sort gate)": "high polyreactivity"}
{"sequence": "QVQLVESGGGLVQAGGSLRLSCAASGFIFTHNAMGWYRQAPGKERELVAAISRSGGRTYYADSVKGRFTISRDNAKNTVYLQMNSLKPEDTAVYYCAKDAYVYGMGYWGQGTQVTVSS", "polyreactivity (PSR sort gate)": "high polyreactivity"}
{"sequence": "QVQLVESGGGLVQAGGSLRLSCAASGFTFHWYAMGWYRQAPGKERELVAAISWSGGSTYYADSVKGRFTISRDNAKNTVYLQMNSLKPEYTAVYYCNAGVYWPGEFDYWGQGTQVTVSS", "polyreactivity (PSR sort gate)": "high polyreactivity"}
{"sequence": "QVQLVESGGGLVQAGGSLRLSCAASGSIIAAYAMGWYRQAPGKERELVAAIRWNGGSTYYADSVKGRFTISRDNAKNTVYLQMISLKPEDTAVFYCAADYIYYPVYEFGYWGQGTQVTVSS", "polyreactivity (PSR sort gate)": "low polyreactivity"}
{"sequence": "QVKLVESGGGLVQAGGSIRLSCAASGRIFTTYTMGWYRQAPGKERELVAAITRGDRTNYADSVKGRFTISRDNAKNTVYLQMNSLIPEDTAVYYCAAVGNWYYRDPLHSRFYYWGQGTQVTVSS", "polyreactivity (PSR sort gate)": "high polyreactivity"}
{"sequence": "QVQLVESGAGLVQAGGSLRLSCAGSGLTFRGNAMGCYRQAPGKERELVAAISWSDDTTDYADSVKGRFTISRDNAKNTVYLQMNSLKPEDTAVYYCAARRRIYRSMGFWGQGSQVTVSS", "polyreactivity (PSR sort gate)": "low polyreactivity"}
{"sequence": "QVHLVESGGGLVQAGGSLRLSCAASGIIFDHYAMVWYRPAPGKERELVAAISTGGGNTYYADSLKGRFTISRDNAKNTVYLQMNSLKPEDTAVYYCNADVLWGRRWGDYYGYDYWGQGTQVTVSS", "polyreactivity (PSR sort gate)": "low polyreactivity"}
{"sequence": "QFQLVESGGGLVQAGGSLRLSCAASGLTFKYYGMGWYRQAPGKERELVATISSGGRTNYADSVKGRFTISRDNAKNTVYLQMNSLKPEDTEVYYCNRPRWYGGSPYYYWGQGTQVTVSS", "polyreactivity (PSR sort gate)": "high polyreactivity"}
{"sequence": "QVQLVETGGGLVQAGGTLRLSCAPSGRIFPYNDMGLYRQAPGKERELVAANSSGGTTDYADSVKGRFTISRDNAKNTVYLQMNSLKPEDTAVYYCAATYVYWTWGYDYWGQGTQVTVSS", "polyreactivity (PSR sort gate)": "low polyreactivity"}
{"sequence": "QVQLVESGGGLVQAGGSLRLSCAASGSIFPDYAMGGYRQAPGKERELVAAITWSGGNTYYADSVKGRFTISRDNAKNTVYLQMNSLKPEDTAVYYCAADISLHWYYYRRYNYWGQGTQVTVSS", "polyreactivity (PSR sort gate)": "low polyreactivity"}
{"sequence": "QVQLVESGGGLVQAGGSLRLSCAASGVTFAHNAMGWYRQAPGKERELVAAITRSGGSTYYADSVKGRFTISRDNAKNTVYLQMNSLKPEDTAVYYCIAGRRGSGYGYWGQGTQVTVSS", "polyreactivity (PSR sort gate)": "high polyreactivity"}
{"sequence": "QVQLVESGGGLVQAGGSLRLSCAASGFTFARNAMGWYRQATGKERELVASITQRGGSTNYADSVKVRFTISRDNAQNTVYLQMNSLKPEDTAVYYCNKASQLYYIQGTYSYGYWGQGTQVTVSS", "polyreactivity (PSR sort gate)": "low polyreactivity"}
{"sequence": "QFQLVESGVGLVQAGGSLRLSCAASVRIFITNAMGWYRQAPGKERELVAAISGGSTYYGDSVKGRFTISRDNAKNTVYLQMNSLKPEDTAVYYCAVDNYYTPWYPYLGYDSWGQGTQVTVSS", "polyreactivity (PSR sort gate)": "low polyreactivity"}
{"sequence": "QVQLVESGGGLVQAGGSLRLSCAASGSIFDSYAMGWYRQAPGKERELVAGIRWDSGSTYYADSVKGRFTISRDNAKNTVYLQINSLKPEDTAVYYCAADLFDFLLIDGFAVVTYGYWGQGTQVTVSS", "polyreactivity (PSR sort gate)": "low polyreactivity"}
{"sequence": "QVQLVESGGGLVQAGGSLRLSCAASGSTFTGYVLGWYRQAPGKERELVAAITSSVDGTYYADSVKGRFTISRDIAKNTVYLQMNSLKPEDTAVYYCAADLWKGVYPSYDYWGQGTQVTVSS", "polyreactivity (PSR sort gate)": "low polyreactivity"}
{"sequence": "QVQLVESGGGLVQAGGSLRLSCAASGFTFGAYAMGSYRQAPGKERELVASINWSGGSTYYADSVKGRFTISRDYAMNTVYFQMNRLKPEDTAVYYCAARESYPGYGYDHWGQGTQVTVSS", "polyreactivity (PSR sort gate)": "low polyreactivity"}
{"sequence": "QVQLVESGGGLVQAGGSLRLSCAASGSTFTSYAMGWYRQAPGKERELVASISRSGGSTYYADSVKGRFTISRDNAKNTVYLQMNSLKPEDTAVYYCAVRSVTWHGYWGQGTQVTVSS", "polyreactivity (PSR sort gate)": "high polyreactivity"}
{"sequence": "QVELVESGGGLVQAGGSLRLSCAGSGIIFPYYVMGWYRQAPGKARELVAAINSGGRTYYADSVKGRFTISRDNAKNSVYLQMNSLNREDTAVYYCAATQSTNRMDHWGQGTQVTVSS", "polyreactivity (PSR sort gate)": "low polyreactivity"}
{"sequence": "QVQLQESGGGLVQAGGSLRLSCAASGSISGPQVMGWYRQAPGKEREFVAAINVGANTYYADNVKGRFTISRDNAKNTVYLQMTSLKPEDTAVYYCAAVYYGDIGHEYWGQGTQVTVSC", "polyreactivity (PSR sort gate)": "low polyreactivity"}
{"sequence": "QVQLVESGGGLVQAGGSLRLSCAASGIIFSAYAMGCYRQAPGKESELVAAISSTGGSTYYADSVKGRFTISRDNAKNTVYLQMNSLKPEDTADYYCATAFTPSKLSRMGYWGQGTQVTVSS", "polyreactivity (PSR sort gate)": "high polyreactivity"}
{"sequence": "QVQLVESGGGLVQAGGTLRLSCAASGRTFRQNAMGWYRQAPGKERELVAAISVNGGRTYYADSVKGRFTITRDNAKITVYLQMNSLKPEDTAVYYCAAESYRIPRRSGYDYWGQGTQVTVSS", "polyreactivity (PSR sort gate)": "high polyreactivity"}
{"sequence": "QVQLVESGGPLVQAGGSLLLSCAASGFTFTVYAKGWYRQAPGKERELVAAITYNGGSTYYADSVKGRFTISRDNAKNTVYLQMNSLKPEDTAVYYCAAEVFLRSLGYWYDFWGLGTQVTVSS", "polyreactivity (PSR sort gate)": "high polyreactivity"}
{"sequence": "QVQLVESGGGLVQAGGSLRLSCAASGTTFPIYAMGWYRQAPGKERELVADITSTGSTDYADSVKGRFTISRDNAKNTVYLQMNSLKPEDTAVYYCAAAWKAYRRYGYWGQGTQVTVSS", "polyreactivity (PSR sort gate)": "high polyreactivity"}
{"sequence": "QVQLVESGGGLVQAGGSLRLSCADSGNIFGTYAMGWSRQAPGKERELVANISNDDRTNYADSVKGRFTISRDNAKNTVYLQMNSLKPEDTAVYYCAVEYPSIAYRKSSKTFDYWGQGTQVTVSS", "polyreactivity (PSR sort gate)": "low polyreactivity"}
{"sequence": "QVQLVESGGGLVQAGGSLRLSCAASGRIFGFNTMGWYRQAPGKERELVAAITSRDGRTYYADSVKGRFTISRDNAKNTVYLQMNSLKPEDTAVYYCATQYRWYAESHGLVTSVIMYSWGQGTQVTVSS", "polyreactivity (PSR sort gate)": "low polyreactivity"}
{"sequence": "QVQIVESGGGLVQAGGSLRLSCAASGRTIGVYAMGWYRQAPRKERELVAAITGDGTKDYADSVKGRFRFSRAISKITVYLQMNSLKPEDTAVYYCAVGGAGSDDYWGQGTQVTVSS", "polyreactivity (PSR sort gate)": "low polyreactivity"}
{"sequence": "QVQLVESGRGLVQAGGSLRLSCAASGFIFGGYAMGWYRQAPGKERELVAAISRSGGSTYYADSVKGRFTISRDNAKNTVYLQMNSLKPEDTAVYYCAAKFWPEDHRLDYWGQGTQVTVSS", "polyreactivity (PSR sort gate)": "low polyreactivity"}
{"sequence": "QVQLVESGGGLVQAGGSLRLSCAASGSTFFPYAMGWYRQAPGKERELVAAIRWSGGRTYYADSVKGRFTISRDNAKNTVYLQMNRLKPEDTAVYYCNAGRYKYTDDYWGQGTQVTVSS", "polyreactivity (PSR sort gate)": "high polyreactivity"}
{"sequence": "QVQLVESGGGIVQAGVSLRLSCAASGINIDYYAMGWYRQAPGKERELVAAITSGGSTSYADSVKGRFTISRDNAKNTVYLQMNSLKAEDTAVYYCNTEPSGYESGYWGQGTQVTVSS", "polyreactivity (PSR sort gate)": "low polyreactivity"}
{"sequence": "QVQLVESGGGLVQAGGSLRLSCAASGLIFVKYARGWYRQAPGKEREFVAAITRSGGTTYYADSVKGRFTISRDNAKNPVYLQMNSLKPEDTAVYYCAAGVVIYFFGGGDYWGQGPQVTVSS", "polyreactivity (PSR sort gate)": "low polyreactivity"}
